Assay results: patent US20030049732A1 (Human Genome Sciences, published 2003)

B1: Nod1 (other)
chain: MEEQGHSEMEIIPSESHPHIQLLKSNRELLVTHIRNTQCLVDNLLKNDYFSAEDAEIVCACPTQPDKVRKILDLVQSKGEEVSEFFLYLLQQLADAYVDLRPWLLEIGFSPSLLTQSKVVVNTDPVSRYTQQLRHHLGRDSKFVLCYAQKEELLLEEIYMDTIMELVGFSNESLGSLNSLACLLDHTTGILNEQGETIFILGDAGVGKSMLLQRLQSLWATGRLDAGVKFFFHFRCRMFSCFKESDRLCLQDLLFKHYCYPERDPEEVFAFLLRFPHVALFTFDGLDELHSDLDLSRVPDSSCPWEPAHPLVLLANLLSGKLLKGASKLLTARTGIEVPRQFLRKKVLLRGFSPSHLRAYARRMFPERALQDRLLSQLEANPNLCSLCSVPLFCWIIFRCFQHFRAAFEGSPQLPDCTMTLTDVFLLVTEVHLNRMQPSSLVQRNTRSPVETLHAGRDTLCSLGQVAHRGMEKSLFVFTQEEVQASGLQERDMQLGFLRALPELGPGGDQQSYEFFHLTLQAFFTAFFLVLDDRVGTQELLRFFQEWMPPAGAATTSCYPPFLPFQCLQGSGPAREDLFKNKDHFQFTNLFLCGLLSKAKQKLLRHLVPAAALRRKRKALWAHLFSSLRGYLKSLPRVQVESFNQVQAMPTFIWMLRCIYETQSQKVGQLAARGICANYLKLTYCNACSADCSALSFVLHHFPKRLALDLDNNNLNDYGVRELQPCFSRLTVLRLSVNQITDGGVKVLSEELTKYKIVTYLGLYNNQITDVGARYVTKILDECKGLTHLKLGKNKITSEGGKYLALAVKNSKSISEVGMWGNQVGDEGAKAFAEALRNHPSLTTLSLASNGISTEGGKSLARALQQNTSLEILWLTQNELNDEVAESLAEMLKVNQTLKHLWLIQNQITAKGTAQLADALQSNTGITEICLNGNLIKPEEAKVYEDEKRIICF
notes: also called wild-type Nod1; WT Nod1
B2: Nod1 mutant, residues 649-953 (other)
chain: MPTFIWMLRCIYETQSQKVGQLAARGICANYLKLTYCNACSADCSALSFVLHHFPKRLALDLDNNNLNDYGVRELQPCFSRLTVLRLSVNQITDGGVKVLSEELTKYKIVTYLGLYNNQITDVGARYVTKILDECKGLTHLKLGKNKITSEGGKYLALAVKNSKSISEVGMWGNQVGDEGAKAFAEALRNHPSLTTLSLASNGISTEGGKSLARALQQNTSLEILWLTQNELNDEVAESLAEMLKVNQTLKHLWLIQNQITAKGTAQLADALQSNTGITEICLNGNLIKPEEAKVYEDEKRIICF
notes: also called the LRRs of Nod1; mutant containing the LRRs
B3: Caspase-9 (enzyme, UniProt P55211 1-416, looked up)
chain: MDEADRRLLRRCRLRLVEELQVDQLWDALLSRELFRPHMIEDIQRAGSGSRRDQARQLIIDLETRGSQALPLFISCLEDTGQDMLASFLRTNRQAAKLSKPTLENLTPVVLRPEIRKPEVLRPETPRPVDIGSGGFGDVGALESLRGNADLAYILSMEPCGHCLIINNVNFCRESGLRTRTGSNIDCEKLRRRFSSLHFMVEVKGDLTAKKMVLALLELAQQDHGALDCCVVVILSHGCQASHLQFPGAVYGTDGCPVSVEKIVNIFNGTSCPSLGGKPKLFFIQACGGEQKDHGFEVASTSPEDESPGSNPEPDATPFQEGLRTFDQLDAISSLPTPSDIFVSYSTFPGFVSWRDPKSGSWYVETLDDIFEQWAHSEDLQSLLLRVANAVSVKGIYKQMPGCFNFLRKKLFFKTS
notes: also called procaspase-9; procaspas-9

What was measured:
[1] = target: T1, Apaf-1 (UniProt O14727-3 1-1194, limits assumed); test: co-immunoprecipitation, tagged proteins transiently expressed in 293T cells
T1 sequence (looked up): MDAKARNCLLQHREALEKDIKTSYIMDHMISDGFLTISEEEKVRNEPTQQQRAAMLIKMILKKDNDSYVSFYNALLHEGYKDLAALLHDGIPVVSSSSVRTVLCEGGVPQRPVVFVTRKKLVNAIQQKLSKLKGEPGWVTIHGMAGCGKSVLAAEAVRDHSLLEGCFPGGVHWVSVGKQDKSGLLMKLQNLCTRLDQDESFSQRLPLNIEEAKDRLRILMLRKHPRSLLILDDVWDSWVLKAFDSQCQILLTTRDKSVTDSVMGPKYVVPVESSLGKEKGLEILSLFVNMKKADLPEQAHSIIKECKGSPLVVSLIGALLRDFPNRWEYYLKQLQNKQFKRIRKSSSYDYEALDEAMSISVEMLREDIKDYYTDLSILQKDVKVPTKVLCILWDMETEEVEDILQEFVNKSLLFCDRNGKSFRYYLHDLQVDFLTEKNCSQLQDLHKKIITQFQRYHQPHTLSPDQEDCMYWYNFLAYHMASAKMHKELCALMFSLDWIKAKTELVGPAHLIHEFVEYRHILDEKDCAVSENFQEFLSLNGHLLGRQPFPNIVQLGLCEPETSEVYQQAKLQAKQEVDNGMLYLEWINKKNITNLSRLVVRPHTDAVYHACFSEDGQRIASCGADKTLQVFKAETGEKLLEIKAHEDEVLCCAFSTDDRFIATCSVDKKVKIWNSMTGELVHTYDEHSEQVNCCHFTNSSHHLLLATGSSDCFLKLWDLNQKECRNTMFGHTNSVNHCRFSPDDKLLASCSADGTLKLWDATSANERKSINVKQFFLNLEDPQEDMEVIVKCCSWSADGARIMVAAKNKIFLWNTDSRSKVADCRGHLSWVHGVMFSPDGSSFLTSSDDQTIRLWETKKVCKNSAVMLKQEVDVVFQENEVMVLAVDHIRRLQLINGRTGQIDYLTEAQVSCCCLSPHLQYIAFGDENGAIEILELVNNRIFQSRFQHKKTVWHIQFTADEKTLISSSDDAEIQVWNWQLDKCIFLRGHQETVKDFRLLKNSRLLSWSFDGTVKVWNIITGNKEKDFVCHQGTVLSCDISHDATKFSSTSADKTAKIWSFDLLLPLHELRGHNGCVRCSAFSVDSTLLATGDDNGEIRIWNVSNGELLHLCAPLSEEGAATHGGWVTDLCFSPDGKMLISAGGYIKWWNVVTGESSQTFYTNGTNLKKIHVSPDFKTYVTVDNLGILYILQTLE
Excerpt: The CARD and its structurally related death effector domain (DED) are peptide motifs that mediate interactions between apoptosis-regulatory proteins (Science 281:1301 (1998); Hofmann et al., Trends Biochem. Sci. 22:155 (1998)).

[2] = target: B3; test: co-immunoprecipitation from co-transfected 293T cells, immunoblot
Excerpt: (§1) Both Ced-4 and Apaf-1 associate with their target caspases via their corresponding CARDs (Zou et al., Cell, 90:405 (1997); Hu et al., Proc. Natl. Acad. Sci. USA, 95:4386 (1998); ); Chinnaiyan et al., Nature, 388:728 (1997); Hu et al., Proc. Natl. Acad. Sci. USA, 95:4386 (1998); Srinivasula et al., Mol. Cell, 1:946 (1998); Chaudhary et al., J. Biol. Chem., 273:17708 (1998); Yang et al., Science, 281:1355 (1998)).

[3] = target: T2, RICK (UniProt O43353 1-540); test: co-transfection of WT or mutant Nod1 and RICK in 293T cells
T2 construct: also called serine-threonine kinase with a CARD
T2 sequence (O43353 whole entry): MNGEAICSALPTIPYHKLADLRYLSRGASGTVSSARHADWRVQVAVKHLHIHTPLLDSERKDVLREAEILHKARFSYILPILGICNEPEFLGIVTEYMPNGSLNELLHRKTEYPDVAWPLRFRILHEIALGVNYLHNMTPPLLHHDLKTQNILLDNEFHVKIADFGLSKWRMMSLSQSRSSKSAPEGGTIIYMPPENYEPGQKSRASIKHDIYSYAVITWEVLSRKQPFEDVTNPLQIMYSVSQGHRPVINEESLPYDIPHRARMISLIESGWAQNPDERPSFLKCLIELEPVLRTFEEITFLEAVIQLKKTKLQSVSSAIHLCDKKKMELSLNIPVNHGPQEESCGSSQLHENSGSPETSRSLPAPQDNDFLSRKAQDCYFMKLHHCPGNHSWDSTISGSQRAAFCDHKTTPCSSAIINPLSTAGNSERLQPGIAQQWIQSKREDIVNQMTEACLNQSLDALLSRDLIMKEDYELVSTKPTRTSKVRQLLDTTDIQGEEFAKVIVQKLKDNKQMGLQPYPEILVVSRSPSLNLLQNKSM

[4] = target: T3, Nod1 mutant, residues 126-953 (human, UniProt Q9Y239 126-953); test: co-immunoprecipitation from co-transfected 293T cells, immunoblot
T3 construct: also called mutant lacking the CARD
T3 sequence: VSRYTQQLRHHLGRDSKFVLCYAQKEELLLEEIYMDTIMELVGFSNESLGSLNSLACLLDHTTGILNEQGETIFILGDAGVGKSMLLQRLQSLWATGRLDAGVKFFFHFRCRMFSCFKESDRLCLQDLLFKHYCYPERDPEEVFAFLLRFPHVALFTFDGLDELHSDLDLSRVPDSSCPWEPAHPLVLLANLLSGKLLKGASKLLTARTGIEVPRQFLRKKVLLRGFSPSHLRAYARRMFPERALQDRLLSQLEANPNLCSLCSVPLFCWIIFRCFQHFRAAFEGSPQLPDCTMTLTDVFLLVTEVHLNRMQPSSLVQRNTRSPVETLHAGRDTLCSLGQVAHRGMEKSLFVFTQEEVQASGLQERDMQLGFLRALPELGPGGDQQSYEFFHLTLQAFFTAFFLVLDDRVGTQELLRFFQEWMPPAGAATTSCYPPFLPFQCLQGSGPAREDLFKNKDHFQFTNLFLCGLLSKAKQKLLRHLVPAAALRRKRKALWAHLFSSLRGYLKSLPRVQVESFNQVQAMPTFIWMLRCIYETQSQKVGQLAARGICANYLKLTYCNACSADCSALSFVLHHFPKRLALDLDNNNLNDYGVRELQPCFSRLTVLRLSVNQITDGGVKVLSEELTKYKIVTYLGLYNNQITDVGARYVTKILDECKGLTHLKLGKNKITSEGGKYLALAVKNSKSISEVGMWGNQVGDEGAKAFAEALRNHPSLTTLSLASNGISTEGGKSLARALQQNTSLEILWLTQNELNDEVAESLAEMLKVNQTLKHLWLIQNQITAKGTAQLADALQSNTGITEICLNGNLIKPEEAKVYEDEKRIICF
Excerpt: as §1

Binder: B1
- binding result [1]: no binding

Binder: B2
- binding result [2]: no binding
- binding result [3]: no binding

Binder: B3
- binding result [4]: no binding
